Reference: the supplement of paper PMC7877785
± gives the uncertainty stated by the source.

Assay: self-splicing fitness, log relative to wild type (ln ratio); higher = more splicing; Tetrahymena group I intron in knt gene, E. coli kanamycin selection, DiMSum; sequences stand for … in CUCUCU…GGAGGGAAAAGUUAUCAGGCAUGCACCUGGUAGCUAGUCUUUAAACCAAUAGAUUGCAUCGGUUUAAAAGGCAAGACCGUCAAAUUGCGGGAAAGGGGUCAACAGCCGUUCAGUACCAAGUCUCAGGGGAAACUUUGAGAUGGCCUUGCAAAGGGUAUGGUAAUAAGCUGACGGACAUGGUCCUAACCACGCAGCCAAGUCCUAAGUCAACAGAUCUUCUGUUGAUAUGGAUGCAGUUCACAGACUAAAUGUCGGUCGGGGAAGAUGUAUUCUUCUCAUAAGAUAUAGUCGGACCUCUCCUUAAUGGGAGCUAGCGGAUGAAGUGAUGCAACACUGGAGCCGCUGGGAACUAAUUUGUAUGCGAAAGUAUAUUGAUUAGUUUUGGAGUACUCGUGGUCG
In short: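 Library with all eight P1ex-region intron nucleotides randomised, intron inside the knt kanamycin-resistance gene on pET-22b(+), in E. coli BL21(DE3). Cells grew overnight at 37°C or 30°C on LB agar with or without 25 μg/mL kanamycin (plus 100 μg/mL carbenicillin, 50 μM IPTG, 0.2% rhamnose), in six replicate transformations. Pooled colonies were amplicon-sequenced on Illumina HiSeq 2500. DiMSum fitness is the error-weighted combination of wild-type-normalised replicate fold changes, kanamycin versus none.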

Sequence | self-splicing fitness (ln) (30 °C) | self-splicing fitness (ln) (37 °C)
ACGGAGCAAUAUUACGCCUG | -3.41 ± 0.2 | -1.52 ± 0.19
ACGGAGCAAUAUUACGCUCU | -3.26 ± 0.32 | -1.22 ± 0.3
ACGGAGCAAUAUUACGCUUG | -1.71 ± 0.11 | -0.212 ± 0.1
ACGGAGCAAUAUUACGGACC |  | -0.877 ± 0.34
ACGGAGCAAUAUUACGGAGG | -4.47 ± 0.46 | -1.69 ± 0.19
ACGGAGCAAUAUUACGGCAU |  | -1.53 ± 0.23
ACGGAGCAAUAUUACGGGGU | -3.65 ± 0.21 | -1.45 ± 0.21
ACGGAGCAAUAUUACGUACU | -1.69 ± 0.091 | -2.32 ± 0.16
ACGGAGCAAUAUUACGUAGC |  | -1.64 ± 0.21
ACGGAGCAAUAUUACGUCAA | -2.71 ± 0.39 | -2.94 ± 0.36
ACGGAGCAAUAUUACGUCCA | -3.19 ± 0.17 | -0.993 ± 0.15
ACGGAGCAAUAUUACGUGAG | -3.06 ± 0.28 | -1.15 ± 0.19
ACGGAGCAAUAUUACGUUAC |  | -2.56 ± 0.22
ACGGAGCAAUAUUACGUUGU | -3.46 ± 0.14 | -2.07 ± 0.13
ACGUAGCAAUAUUACGAAAG | -3.88 ± 0.25 | -3.59 ± 0.31
ACGUAGCAAUAUUACGACCC | -0.864 ± 0.19 | 0.196 ± 0.22
ACGUAGCAAUAUUACGACCU | -0.0641 ± 0.099 | 0.527 ± 0.11
ACGUAGCAAUAUUACGACGG | -0.92 ± 0.11 | -0.526 ± 0.13
ACGUAGCAAUAUUACGAUGU | -2.37 ± 0.14 | -1.6 ± 0.17
ACGUAGCAAUAUUACGCGAC | -3.16 ± 0.21 | -1.9 ± 0.22
ACGUAGCAAUAUUACGCGCC | -1.23 ± 0.19 | -0.895 ± 0.25
ACGUAGCAAUAUUACGCUCG | -2.16 ± 0.12 | -0.0752 ± 0.15
ACGUAGCAAUAUUACGGAGG | -4.05 ± 0.28 | -2.53 ± 0.19
ACGUAGCAAUAUUACGGCAC |  | -1.73 ± 0.42

Sequence | self-splicing fitness (ln) (30 °C) | self-splicing fitness (ln) (37 °C)
ACGUAGCAAUAUUACGGCGA | 0.0177 ± 0.1 | 0.229 ± 0.12
ACGUAGCAAUAUUACGGCGU | -3.88 ± 0.14 | -2.48 ± 0.15
ACGUAGCAAUAUUACGUAUA | -3.36 ± 0.33 | -2.1 ± 0.2
ACGUAGCAAUAUUACGUCUG | -2.47 ± 0.16 | -2.71 ± 0.19
ACGUAGCAAUAUUACGUGUG | -3.26 ± 0.14 | -3.01 ± 0.16
ACGUAGCAAUAUUACGUUCC | -3.29 ± 0.24 | -2.04 ± 0.23
ACUAAGCAAUAUUACGACCC | -1.08 ± 0.25 | -0.275 ± 0.32
ACUAAGCAAUAUUACGACCG | -0.45 ± 0.17 | 0.0545 ± 0.21
ACUAAGCAAUAUUACGACUA | -1.52 ± 0.14 | -0.721 ± 0.14
ACUAAGCAAUAUUACGAGAA | -2.46 ± 0.28 | -2.37 ± 0.26
ACUAAGCAAUAUUACGAGCA | -1.29 ± 0.086 | -0.197 ± 0.098
ACUAAGCAAUAUUACGAGGG | -2.55 ± 0.17 | -2.31 ± 0.24
ACUAAGCAAUAUUACGCCAA | -2.24 ± 0.12 | -2.26 ± 0.16
ACUAAGCAAUAUUACGCCGU | -1.86 ± 0.2 | -1.64 ± 0.18
ACUAAGCAAUAUUACGCUUC | -1.69 ± 0.17 | -0.717 ± 0.14
ACUAAGCAAUAUUACGGACG | -0.961 ± 0.087 | -0.106 ± 0.14
ACUAAGCAAUAUUACGGAGC | -2.87 ± 0.17 | -0.628 ± 0.14
ACUAAGCAAUAUUACGGCAA | -0.655 ± 0.089 | -0.133 ± 0.1
ACUAAGCAAUAUUACGGCUU | -2.2 ± 0.1 | -1.27 ± 0.12
ACUAAGCAAUAUUACGGGCA | -1.27 ± 0.089 | -0.405 ± 0.1
ACUAAGCAAUAUUACGGUUC | -3.92 ± 0.2 | -1.42 ± 0.13
ACUAAGCAAUAUUACGUAGU | -3.04 ± 0.14 | -3.45 ± 0.21
ACUAAGCAAUAUUACGUCUG | -1.37 ± 0.084 | -0.847 ± 0.1
ACUCAGCAAUAUUACGAAAG | -1.78 ± 0.12 | -1.42 ± 0.15

Sequence | self-splicing fitness (ln) (30 °C) | self-splicing fitness (ln) (37 °C)
ACUCAGCAAUAUUACGAACU | -0.166 ± 0.053 | 0.599 ± 0.066
ACUCAGCAAUAUUACGAAGA | -0.868 ± 0.1 | -0.958 ± 0.11
ACUCAGCAAUAUUACGACCU | -0.248 ± 0.12 | 0.216 ± 0.13
ACUCAGCAAUAUUACGAGUC | -5.21 ± 0.29 | -2.97 ± 0.2
ACUCAGCAAUAUUACGAUAG | -4.03 ± 0.24 | -2.21 ± 0.17
ACUCAGCAAUAUUACGCCGC | -2.78 ± 0.28 | -1.78 ± 0.43
ACUCAGCAAUAUUACGCCUA | -0.864 ± 0.15 | -0.0704 ± 0.12
ACUCAGCAAUAUUACGCGCA | -0.615 ± 0.14 | -0.153 ± 0.1
ACUCAGCAAUAUUACGCGCC | -1.17 ± 0.16 | -0.503 ± 0.17
ACUCAGCAAUAUUACGCUGA | -3.74 ± 0.3 | -3.15 ± 0.34
ACUCAGCAAUAUUACGCUGC | -3.36 ± 0.3 | -2.24 ± 0.29
ACUCAGCAAUAUUACGCUUG | -1.83 ± 0.069 | -0.599 ± 0.083
ACUCAGCAAUAUUACGCUUU | -1.85 ± 0.095 | -0.42 ± 0.11
ACUCAGCAAUAUUACGGCCA | -1.28 ± 0.13 | -0.0774 ± 0.16
ACUCAGCAAUAUUACGGCGC | -0.183 ± 0.068 | 0.000506 ± 0.097
ACUCAGCAAUAUUACGGGGC | -4.64 ± 0.34 | -2.93 ± 0.44
ACUCAGCAAUAUUACGGUAA | -1.66 ± 0.092 | -0.871 ± 0.081
ACUCAGCAAUAUUACGGUGG | -4.04 ± 0.22 | -2.67 ± 0.18
ACUCAGCAAUAUUACGUCGA | -3.15 ± 0.25 | -1.94 ± 0.18
ACUCAGCAAUAUUACGUGCA | -0.681 ± 0.095 | -0.372 ± 0.11
ACUCAGCAAUAUUACGUUGC | -3.43 ± 0.16 | -3.57 ± 0.26
ACUCAGCAAUAUUACGUUUG | -2.36 ± 0.095 | -1.94 ± 0.14
ACUGAGCAAUAUUACGAGCG | -2.44 ± 0.14 | -0.615 ± 0.13
ACUGAGCAAUAUUACGAGGU | -2.91 ± 0.14 | -1.99 ± 0.23

Sequence | self-splicing fitness (ln) (30 °C) | self-splicing fitness (ln) (37 °C)
ACUGAGCAAUAUUACGAUAG | -5.01 ± 0.39 | -1.78 ± 0.17
ACUGAGCAAUAUUACGAUGG | -2.16 ± 0.096 | -1.13 ± 0.1
ACUGAGCAAUAUUACGCCAA | -3.45 ± 0.29 | -2.74 ± 0.22
ACUGAGCAAUAUUACGCGUU | -3.38 ± 0.17 | -1.51 ± 0.13
ACUGAGCAAUAUUACGCUCA | -3.23 ± 0.24 | -1.87 ± 0.18
ACUGAGCAAUAUUACGCUUU | -2.53 ± 0.21 | -1.37 ± 0.18
ACUGAGCAAUAUUACGGACC | -2.23 ± 0.26 | -1.14 ± 0.26
ACUGAGCAAUAUUACGGCCG | -1.89 ± 0.17 | -0.752 ± 0.2
ACUGAGCAAUAUUACGGCGC | -1.09 ± 0.088 | -0.47 ± 0.11
ACUGAGCAAUAUUACGGGGA | -2.48 ± 0.17 | -1.92 ± 0.18
ACUGAGCAAUAUUACGGGGU | -2.72 ± 0.14 | -3.13 ± 0.28
ACUGAGCAAUAUUACGGUAU | -3.55 ± 0.18 | -3.17 ± 0.26
ACUGAGCAAUAUUACGUACG | -2.42 ± 0.22 | -2.07 ± 0.25
ACUGAGCAAUAUUACGUCGA | -3.59 ± 0.22 | -2.07 ± 0.18
ACUUAGCAAUAUUACGAAUC | -3.59 ± 0.23 | -0.386 ± 0.23
ACUUAGCAAUAUUACGACCG | -0.573 ± 0.18 | -0.217 ± 0.26
ACUUAGCAAUAUUACGAGAU | -2.61 ± 0.2 | -2.95 ± 0.24
ACUUAGCAAUAUUACGAGCC | -2.49 ± 0.3 | -1.26 ± 0.31
ACUUAGCAAUAUUACGAGUA | 0.101 ± 0.18 | -1.33 ± 0.21
ACUUAGCAAUAUUACGAUCG | -1.4 ± 0.11 | -1.23 ± 0.14
ACUUAGCAAUAUUACGAUUG | -3.17 ± 0.2 | -0.306 ± 0.16
ACUUAGCAAUAUUACGCAAU | -3.64 ± 0.26 | -2.05 ± 0.21
ACUUAGCAAUAUUACGCUCA | -0.842 ± 0.13 | -0.196 ± 0.15
ACUUAGCAAUAUUACGGACC | -0.607 ± 0.15 | -0.756 ± 0.25
